Source: patent US20250249113

Key:
[1] = tested on: Compound 11: DM1-Mcc-Phe-Cit-Lys(PEG5-Ma-Cys-Ac)-Tyr-OH
[2] = tested on: Compound 12: DM1-Mcc-Cit-Lys(PEG5-Ma-Cys-Ac)-Tyr-OH
[3] = tested on: Compound 1: AF-Arg-Lys(PEG4-Mal-Cys-Ac)-Phe-OH
[4] = tested on: Compound 3: AF-Arg-Phe-Lys(PEG4-Mal-Cys-Ac)-OH
[5] = tested on: Compound 5: DM1-Mal-Phe-Lys-Lys(PEG4-Mal-Cys-Ac)-Phe-OH
[6] = tested on: Compound 6: DM1-Mal-Phe-Cit-Lys(PEG4-Mal-Cys-Ac)-Phe-OH
[7] = tested on: Compound 7: DM1-Mal-Phe-Cit-Phe-Lys(PEG4-Mal-Cys-Ac)-OH
[8] = tested on: Compound 8: AF-Cit-Lys(PEG4-Mal-Cys-Ac)-Phe-OH

recombinant human Cathepsin B
Ratio (T1/2 Compound/T1/2 Reference), Cat B-induced cleavage [1]: 0.005
T1/2 Compound (min), Cat B-induced cleavage [1]: 0.06 min
T1/2 of cleavage by exo-Cat B [1]: compounds 11 and 12 are spontaneously cleaved by exo-Cat B (T1/2≤1 min)
Ratio (T1/2 Compound/T1/2 Reference), Cat B-induced cleavage [2]: 4e-05
T1/2 Compound (min), Cat B-induced cleavage [2]: 0.0004 min
T1/2 of cleavage by exo-Cat B [2]: compounds 11 and 12 are spontaneously cleaved by exo-Cat B (T1/2≤1 min)
Ratio (T1/2 Compound/T1/2 Reference), Cat B-induced cleavage [3]: 0.12
T1/2 Compound (min), Cat B-induced cleavage [3]: 1.5 min
Ratio (T1/2 Compound/T1/2 Reference), Cat B-induced cleavage [4]: 0.11
T1/2 Compound (min), Cat B-induced cleavage [4]: 1.4 min
Ratio (T1/2 Compound/T1/2 Reference), Cat B-induced cleavage [5]: 0.05
T1/2 Compound (min), Cat B-induced cleavage [5]: 0.6 min
Ratio (T1/2 Compound/T1/2 Reference), Cat B-induced cleavage [6]: 0.02
T1/2 Compound (min), Cat B-induced cleavage [6]: 0.3 min
Ratio (T1/2 Compound/T1/2 Reference), Cat B-induced cleavage [7]: 0.09
T1/2 Compound (min), Cat B-induced cleavage [7]: 1.2 min
Ratio (T1/2 Compound/T1/2 Reference), Cat B-induced cleavage [8]: 0.09
T1/2 Compound (min), Cat B-induced cleavage [8]: 1.1 min
